Laboratory results as given in patent publication US6867010.

How the values were obtained:
[1] = target: base-linker-pTp conjugate (compound 9); experiment: phage crosslinked to biotinylated base-linker-pTp conjugate, captured on streptavidin beads, titered by direct infection with the beads
[2] = target: base-linker-oligodeoxynucleotide conjugate (compound 8); experiment: phage crosslinked to biotinylated base-linker-oligodeoxynucleotide conjugate, captured on streptavidin beads, titered after DNase I release
[3] = target: base-linker-oligodeoxynucleotide conjugate (compound 8); experiment: phage crosslinked to biotinylated base-linker-oligodeoxynucleotide conjugate in EDTA, captured on streptavidin beads, titered by direct infection with the beads
[4] = target: base-linker-oligodeoxynucleotide conjugate (compound 8); experiment: phage without acid peptide incubated with biotinylated oligodeoxynucleotide-peptide B conjugate, captured on streptavidin beads, phage titering

Row | Substance | efficiency of phage immobilization [1] [%] | true immobilization efficiency [2] [%] | efficiency of immobilization [3] [%] | percent of phage immobilized [4] [%]
1 | acid peptide A-pIII fusion displayed on acid helper phage (M13K07 helper phage with the acidic peptide A and a C-terminal GGC extension inserted at the N-terminus of pIII) (from UniProt P69168 1-3) | 10 | 80 | 10 | –
2 | wildtype pIII protein on phage produced with wildtype M13K07 helper phage (from UniProt P69168 19-424) | – | – | – | 0.3
